Test results published in patent publication US20160272693A1 (ZEALAND PHARMA A S, published 2016).
*1 amine or outer side, *2 acyl side, *3 side chain or, on linkers, in order; H or OH if unused. Bridges are numbered along the chain shown (N, C = ends). [ ]: non-standard residue; d: D form. The star is where a group is joined. Pro(trans-4-NH2) = O=C([C@@H]1C[C@@H](N[*:3])CN1[*:1])[*:2]; C20 diacid = O=C(O)CCCCCCCCCCCCCCCCCCC(=O)*; γGlu = O=C(O)[C@H](CCC(=O)[*:2])N[*:1]; Hyp = O=C(O)[C@@H]1C[C@@H](O)CN1; NMeI = CC[C@H](C)[C@H](NC)C(=O)O; Aad = N[C@@H](CCCC(=O)O)C(=O)O; Orn = NCCC[C@H](N)C(=O)O; Sar = CNCC(=O)O

T1: human amylin receptor 3 (hAMYR3), hCTR2 co-expressed with human receptor activity modifying protein 3 (hRAMP3) (human, UniProt P30988 25-474; O60896 24-148)
T1 sequence (looked up) 1: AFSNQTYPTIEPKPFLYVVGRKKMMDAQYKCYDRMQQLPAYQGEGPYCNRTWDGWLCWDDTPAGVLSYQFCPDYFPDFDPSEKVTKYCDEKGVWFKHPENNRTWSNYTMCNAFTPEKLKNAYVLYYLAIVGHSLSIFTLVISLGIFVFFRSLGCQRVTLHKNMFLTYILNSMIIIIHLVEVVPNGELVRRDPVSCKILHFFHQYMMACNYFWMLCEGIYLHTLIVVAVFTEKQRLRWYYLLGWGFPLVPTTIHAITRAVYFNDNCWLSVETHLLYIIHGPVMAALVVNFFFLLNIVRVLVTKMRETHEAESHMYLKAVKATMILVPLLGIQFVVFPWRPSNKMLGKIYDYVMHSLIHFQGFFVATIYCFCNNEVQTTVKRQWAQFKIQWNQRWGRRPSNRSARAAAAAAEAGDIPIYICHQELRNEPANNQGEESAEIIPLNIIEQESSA
T1 sequence (looked up) 2: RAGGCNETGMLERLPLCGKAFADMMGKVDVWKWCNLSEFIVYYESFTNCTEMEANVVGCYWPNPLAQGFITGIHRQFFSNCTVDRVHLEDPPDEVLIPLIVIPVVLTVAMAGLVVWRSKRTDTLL

B1: [19CD]-isoGlu-R-C( )-GTAT-C( )-ATERLA-Aad-FLTRSSF-Gly(Me)-A-Ile(Me)-LSSTEVGS-Orn-T-Hyp-NH2 (Compd. 44) (peptide)
peptide: {C20 diacid}-[γGlu]RCGTATCATERLA[Aad]FLTRSSF[Sar]A[NMeI]LSSTEVGS[Orn]T[Hyp]-NH2
modifications: disulfide 3-8
SMILES: CC[C@H](C)[C@@H](C(=O)N[C@@H](CC(C)C)C(=O)N[C@@H](CO)C(=O)N[C@@H](CO)C(=O)N[C@H](C(=O)N[C@@H](CCC(=O)O)C(=O)N[C@H](C(=O)NCC(=O)N[C@@H](CO)C(=O)N[C@@H](CCCN)C(=O)N[C@H](C(=O)N1C[C@H](O)C[C@H]1C(N)=O)[C@@H](C)O)C(C)C)[C@@H](C)O)N(C)C(=O)[C@H](C)NC(=O)CN(C)C(=O)[C@H](Cc1ccccc1)NC(=O)[C@H](CO)NC(=O)[C@H](CO)NC(=O)[C@H](CCCNC(=N)N)NC(=O)[C@@H](NC(=O)[C@H](CC(C)C)NC(=O)[C@H](Cc1ccccc1)NC(=O)[C@H](CCCC(=O)O)NC(=O)[C@H](C)NC(=O)[C@H](CC(C)C)NC(=O)[C@H](CCCNC(=N)N)NC(=O)[C@H](CCC(=O)O)NC(=O)[C@@H](NC(=O)[C@H](C)NC(=O)[C@@H]1CSSC[C@H](NC(=O)[C@H](CCCNC(=N)N)NC(=O)CC[C@H](NC(=O)CCCCCCCCCCCCCCCCCCC(=O)O)C(=O)O)C(=O)NCC(=O)N[C@@H]([C@@H](C)O)C(=O)N[C@@H](C)C(=O)N[C@@H]([C@@H](C)O)C(=O)N1)[C@@H](C)O)[C@@H](C)O
B2: [19CD]-isoGlu-R-C( )-GTAT-C( )-ATERLADFLTRSSF-Gly(Me)-A-Ile(Me)-LSSTEVGSST-Hyp-NH2 (Compd. 41) (peptide)
peptide: {C20 diacid}-[γGlu]RCGTATCATERLADFLTRSSF[Sar]A[NMeI]LSSTEVGSST[Hyp]-NH2
modifications: disulfide 3-8
SMILES: CC[C@H](C)[C@@H](C(=O)N[C@@H](CC(C)C)C(=O)N[C@@H](CO)C(=O)N[C@@H](CO)C(=O)N[C@H](C(=O)N[C@@H](CCC(=O)O)C(=O)N[C@H](C(=O)NCC(=O)N[C@@H](CO)C(=O)N[C@@H](CO)C(=O)N[C@H](C(=O)N1C[C@H](O)C[C@H]1C(N)=O)[C@@H](C)O)C(C)C)[C@@H](C)O)N(C)C(=O)[C@H](C)NC(=O)CN(C)C(=O)[C@H](Cc1ccccc1)NC(=O)[C@H](CO)NC(=O)[C@H](CO)NC(=O)[C@H](CCCNC(=N)N)NC(=O)[C@@H](NC(=O)[C@H](CC(C)C)NC(=O)[C@H](Cc1ccccc1)NC(=O)[C@H](CC(=O)O)NC(=O)[C@H](C)NC(=O)[C@H](CC(C)C)NC(=O)[C@H](CCCNC(=N)N)NC(=O)[C@H](CCC(=O)O)NC(=O)[C@@H](NC(=O)[C@H](C)NC(=O)[C@@H]1CSSC[C@H](NC(=O)[C@H](CCCNC(=N)N)NC(=O)CC[C@H](NC(=O)CCCCCCCCCCCCCCCCCCC(=O)O)C(=O)O)C(=O)NCC(=O)N[C@@H]([C@@H](C)O)C(=O)N[C@@H](C)C(=O)N[C@@H]([C@@H](C)O)C(=O)N1)[C@@H](C)O)[C@@H](C)O
B3: [19CD]-isoGlu-R-C( )-GTAT-C( )-ATERLA-Aad-FLTRSSF-Gly(Me)-A-Ile(Me)-LSSTEVGSST-Hyp-NH2 (Compd. 43) (peptide)
peptide: {C20 diacid}-[γGlu]RCGTATCATERLA[Aad]FLTRSSF[Sar]A[NMeI]LSSTEVGSST[Hyp]-NH2
modifications: disulfide 3-8
SMILES: CC[C@H](C)[C@@H](C(=O)N[C@@H](CC(C)C)C(=O)N[C@@H](CO)C(=O)N[C@@H](CO)C(=O)N[C@H](C(=O)N[C@@H](CCC(=O)O)C(=O)N[C@H](C(=O)NCC(=O)N[C@@H](CO)C(=O)N[C@@H](CO)C(=O)N[C@H](C(=O)N1C[C@H](O)C[C@H]1C(N)=O)[C@@H](C)O)C(C)C)[C@@H](C)O)N(C)C(=O)[C@H](C)NC(=O)CN(C)C(=O)[C@H](Cc1ccccc1)NC(=O)[C@H](CO)NC(=O)[C@H](CO)NC(=O)[C@H](CCCNC(=N)N)NC(=O)[C@@H](NC(=O)[C@H](CC(C)C)NC(=O)[C@H](Cc1ccccc1)NC(=O)[C@H](CCCC(=O)O)NC(=O)[C@H](C)NC(=O)[C@H](CC(C)C)NC(=O)[C@H](CCCNC(=N)N)NC(=O)[C@H](CCC(=O)O)NC(=O)[C@@H](NC(=O)[C@H](C)NC(=O)[C@@H]1CSSC[C@H](NC(=O)[C@H](CCCNC(=N)N)NC(=O)CC[C@H](NC(=O)CCCCCCCCCCCCCCCCCCC(=O)O)C(=O)O)C(=O)NCC(=O)N[C@@H]([C@@H](C)O)C(=O)N[C@@H](C)C(=O)N[C@@H]([C@@H](C)O)C(=O)N1)[C@@H](C)O)[C@@H](C)O
B4: [19CD]-isoGlu-R-C( )-GTAT-C( )-ATERLAHFLNRSSF-Gly(Me)-A-Ile(Me)-LSSTEVGSFTP-NH2 (Compd. 40) (peptide)
peptide: {C20 diacid}-[γGlu]RCGTATCATERLAHFLNRSSF[Sar]A[NMeI]LSSTEVGSFTP-NH2
modifications: disulfide 3-8
SMILES: CC[C@H](C)[C@@H](C(=O)N[C@@H](CC(C)C)C(=O)N[C@@H](CO)C(=O)N[C@@H](CO)C(=O)N[C@H](C(=O)N[C@@H](CCC(=O)O)C(=O)N[C@H](C(=O)NCC(=O)N[C@@H](CO)C(=O)N[C@@H](Cc1ccccc1)C(=O)N[C@H](C(=O)N1CCC[C@H]1C(N)=O)[C@@H](C)O)C(C)C)[C@@H](C)O)N(C)C(=O)[C@H](C)NC(=O)CN(C)C(=O)[C@H](Cc1ccccc1)NC(=O)[C@H](CO)NC(=O)[C@H](CO)NC(=O)[C@H](CCCNC(=N)N)NC(=O)[C@H](CC(N)=O)NC(=O)[C@H](CC(C)C)NC(=O)[C@H](Cc1ccccc1)NC(=O)[C@H](Cc1c[nH]cn1)NC(=O)[C@H](C)NC(=O)[C@H](CC(C)C)NC(=O)[C@H](CCCNC(=N)N)NC(=O)[C@H](CCC(=O)O)NC(=O)[C@@H](NC(=O)[C@H](C)NC(=O)[C@@H]1CSSC[C@H](NC(=O)[C@H](CCCNC(=N)N)NC(=O)CC[C@H](NC(=O)CCCCCCCCCCCCCCCCCCC(=O)O)C(=O)O)C(=O)NCC(=O)N[C@@H]([C@@H](C)O)C(=O)N[C@@H](C)C(=O)N[C@@H]([C@@H](C)O)C(=O)N1)[C@@H](C)O
B5: [19CD]-isoGlu-R-C( )-GTAT-C( )-ATERLAHFLTRSSF-Gly(Me)-A-Ile(Me)-LSSTEVGSST-Apr-NH2 (Compd. 45) (peptide)
peptide: {C20 diacid}-[γGlu]RCGTATCATERLAHFLTRSSF[Sar]A[NMeI]LSSTEVGSST[Pro(trans-4-NH2)]-NH2
modifications: disulfide 3-8
SMILES: CC[C@H](C)[C@@H](C(=O)N[C@@H](CC(C)C)C(=O)N[C@@H](CO)C(=O)N[C@@H](CO)C(=O)N[C@H](C(=O)N[C@@H](CCC(=O)O)C(=O)N[C@H](C(=O)NCC(=O)N[C@@H](CO)C(=O)N[C@@H](CO)C(=O)N[C@H](C(=O)N1C[C@H](N)C[C@H]1C(N)=O)[C@@H](C)O)C(C)C)[C@@H](C)O)N(C)C(=O)[C@H](C)NC(=O)CN(C)C(=O)[C@H](Cc1ccccc1)NC(=O)[C@H](CO)NC(=O)[C@H](CO)NC(=O)[C@H](CCCNC(=N)N)NC(=O)[C@@H](NC(=O)[C@H](CC(C)C)NC(=O)[C@H](Cc1ccccc1)NC(=O)[C@H](Cc1c[nH]cn1)NC(=O)[C@H](C)NC(=O)[C@H](CC(C)C)NC(=O)[C@H](CCCNC(=N)N)NC(=O)[C@H](CCC(=O)O)NC(=O)[C@@H](NC(=O)[C@H](C)NC(=O)[C@@H]1CSSC[C@H](NC(=O)[C@H](CCCNC(=N)N)NC(=O)CC[C@H](NC(=O)CCCCCCCCCCCCCCCCCCC(=O)O)C(=O)O)C(=O)NCC(=O)N[C@@H]([C@@H](C)O)C(=O)N[C@@H](C)C(=O)N[C@@H]([C@@H](C)O)C(=O)N1)[C@@H](C)O)[C@@H](C)O
B6: [19CD]-isoGlu-R-C( )-GTAT-C( )-ATERLADFLTRSSF-Gly(Me)-A-Ile(Me)-LSSTEVGSFT-Hyp-NH2 (Compd. 42) (peptide)
peptide: {C20 diacid}-[γGlu]RCGTATCATERLADFLTRSSF[Sar]A[NMeI]LSSTEVGSFT[Hyp]-NH2
modifications: disulfide 3-8
SMILES: CC[C@H](C)[C@@H](C(=O)N[C@@H](CC(C)C)C(=O)N[C@@H](CO)C(=O)N[C@@H](CO)C(=O)N[C@H](C(=O)N[C@@H](CCC(=O)O)C(=O)N[C@H](C(=O)NCC(=O)N[C@@H](CO)C(=O)N[C@@H](Cc1ccccc1)C(=O)N[C@H](C(=O)N1C[C@H](O)C[C@H]1C(N)=O)[C@@H](C)O)C(C)C)[C@@H](C)O)N(C)C(=O)[C@H](C)NC(=O)CN(C)C(=O)[C@H](Cc1ccccc1)NC(=O)[C@H](CO)NC(=O)[C@H](CO)NC(=O)[C@H](CCCNC(=N)N)NC(=O)[C@@H](NC(=O)[C@H](CC(C)C)NC(=O)[C@H](Cc1ccccc1)NC(=O)[C@H](CC(=O)O)NC(=O)[C@H](C)NC(=O)[C@H](CC(C)C)NC(=O)[C@H](CCCNC(=N)N)NC(=O)[C@H](CCC(=O)O)NC(=O)[C@@H](NC(=O)[C@H](C)NC(=O)[C@@H]1CSSC[C@H](NC(=O)[C@H](CCCNC(=N)N)NC(=O)CC[C@H](NC(=O)CCCCCCCCCCCCCCCCCCC(=O)O)C(=O)O)C(=O)NCC(=O)N[C@@H]([C@@H](C)O)C(=O)N[C@@H](C)C(=O)N[C@@H]([C@@H](C)O)C(=O)N1)[C@@H](C)O)[C@@H](C)O

Biological target: T1, human amylin receptor 3 (hAMYR3), hCTR2 …
Test: cell-based or functional assay

Binder | hAMYR3 EC50 (nM); cAMP induction [nM]
B1 | 0.3
B2 | 0.34
B3 | 0.35
B4 | 0.19
B5 | 0.31
B6 | 0.34
